# Results as given in publication PMC5261807 (2017).
# Non-standard residues stand in square brackets, D forms with d. Primed or numbered codes have the meaning given here. No end group written: not given here. Me2a″ = asymmetric dimethylarginine (Rme2a); Arg(Me2a) = CN(C)C(=N)NCCC[C@H](N)C(=O)O; Lys(Me3) = C[N+](C)(C)CCCC[C@H](N)C(=O)O; Arg(Me2s) = CN=C(NC)NCCC[C@H](N)C(=O)O; pT = C[C@@H](OP(=O)(O)O)[C@H](N)C(=O)O; Me2a = asymmetric dimethyl (on Arg); Lys(Me2) = CN(C)CCCC[C@H](N)C(=O)O; Me2s = symmetric dimethyl (on Arg); pS = N[C@@H](COP(=O)(O)O)C(=O)O; Lys(Me) = CNCCCC[C@H](N)C(=O)O; Me3″ = trimethyl lysine (Kme3)
# T1: Bdf1 bromodomain 2 (GST-tagged, WT) (Saccharomyces cerevisiae (strain ATCC …, UniProt P35817))
# T1 chain: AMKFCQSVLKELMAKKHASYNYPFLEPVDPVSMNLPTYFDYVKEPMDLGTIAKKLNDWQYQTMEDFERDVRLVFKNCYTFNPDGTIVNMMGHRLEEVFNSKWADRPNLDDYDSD
# T2: Bdf1 bromodomain 1 (GST-tagged, WT) (Saccharomyces cerevisiae (strain ATCC …, UniProt P35817))
# T2 chain: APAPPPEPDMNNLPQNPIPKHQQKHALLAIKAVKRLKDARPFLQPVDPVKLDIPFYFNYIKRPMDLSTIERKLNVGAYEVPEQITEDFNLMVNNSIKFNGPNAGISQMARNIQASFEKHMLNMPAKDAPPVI
# B1: H3 1-19 (peptide)
# chain: ARTKQTARKSTGGKAPRKQ
# modifications: A R T K Q T A R Kac S T G G K A P R K Q
# B2: H3 1-19 (peptide)
# chain: ARTKQTA[Arg(Me2s)][Lys(Me2)]S[pT]GGKAPRKQ
# B3: H3 1-19 (peptide)
# chain: A[Arg(Me2s)]T[Lys(Me3)]QTA[Arg(Me2a)][Lys(Me2)]STGGKAPRKQ
# B4: H4 1-19 (peptide)
# chain: SGRGKGGKGLGKGGAKRHR
# modifications: S G Rme2a G Kac G G K G L G K G G A K R H R
# B5: H4 1-19 (peptide)
# chain: SGRGKGGKGLGKGGAKRHR
# modifications: S G Rme2s G Kac G G Kac G L G K G G A K R H R
# B6: H3 1-19 (peptide)
# chain: ARTKQTARKSTGGKAPRKQ
# modifications: A R T Kme2 Q T A Rme2s Kme3 S T G G K A P R K Q
# B7: H3 1-19 (peptide)
# chain: ARTKQTARKSTGGKAPRKQ
# modifications: A R T Kac Q T A Rme2s Kme3 S T G G K A P R K Q
# B8: H4 1-19 (peptide)
# chain: SGRGKGGKGLGKGGAKRHR
# modifications: S G R G Kac G G Kac G L G Kac G G A Kac R H R
# B9: H3 1-19 (peptide)
# chain: ARTKQTARKSTGGKAPRKQ
# modifications: A Rme2s T Kme3 Q T A Rme2s Kac S T G G K A P R K Q
# B10: H3 16-35 (peptide)
# chain: PRKQLATKAARK(Ac)SAPATGG
# B11: H3 16-35 (peptide)
# chain: PRKQLATKAAR(Me2a″)K(Me3″)SAPATGG
# B12: H4 1-19 (peptide)
# chain: SGRGKGGKGLGKGGAKRHR
# modifications: S G R G K G G K G L G Kac G G A Kac R H R
# B13: H2B 1-19 (peptide)
# chain: PDPAKSAPAPKKGSKKAVT
# modifications: not fully specified
# B14: H3 1-19 (peptide)
# chain: ARTKQTARKSTGGKAPRKQ
# modifications: A Rme2a T Kme2 Q T A Rme2a Kme1 S T G G K A P R K Q
# B15: H3 1-19 (peptide)
# chain: ARTKQTARKSTGGKAPRKQ
# modifications: A Rme2s pT Kme2 Q T A R K S T G G K A P R K Q
# B16: H3 1-19 (peptide)
# chain: AR[pT]K(Me)QTARKSTGGKAPRKQ
# B17: H3 1-19 (peptide)
# chain: ART[Lys(Me3)]QTA[Arg(Me2s)][Lys(Me2)]STGGKAPRKQ
# B18: H4 1-19 (peptide)
# chain: SGRGKGGKGLGKGGAKRHR
# modifications: histone peptides carry modifications given inline in the sequence and in columns 4-7 (Kac, Kme1/2/3, Rme2a/s, Cit, pS/pT); N-terminus free or acetylated
# B19: H3 1-19 (peptide)
# chain: ARTKQTARKSTGGKAPRKQ
# modifications: A R T Kac Q T A Rme2a Kme1 S T G G K A P R K Q
# B20: H3 1-19 (peptide)
# chain: ARTKQTARKSTGGKAPRKQ
# modifications: A R T Kme1 Q T A Rme2s Kme2 S T G G K A P R K Q
# B21: H3 1-19 (peptide)
# chain: AR[pT][Lys(Me2)]QTARKSTGGKAPRKQ
# B22: H3 1-19 (peptide)
# chain: AR(Me2a″)TK(Ac)QTAR(Me2a″)K(Ac)STGGKAPRKQ
# B23: H4 1-19 (peptide)
# chain: SGRGKGGKGLGKGGAKRHR
# modifications: S G Rme2a G K G G K G L G K G G A K R H R
# B24: H3 1-19 (peptide)
# chain: A[Arg(Me2s)][pT]K(Ac)QTARKSTGGKAPRKQ
# B25: H3 1-19 (peptide)
# chain: ARTKQTARKSTGGKAPRKQ
# modifications: A R T Kme2 Q T A R K S T G G K A P R K Q
# B26: H3 1-19 (peptide)
# chain: ARTKQTA[Arg(Me2a)]KS[pT]GGKAPRKQ
# B27: H3 1-19 (peptide)
# chain: ARTKQTARKSTGGKAPRKQ
# modifications: A R T K Q T A R Kac S T G G Kac A P R K Q
# B28: H3 26-45 (peptide)
# chain: RKSAPATGGVKKPHRYRPG
# modifications: R K S A P A T G G V Kme2 K P H R Y R P G
# B29: H3 1-19 (peptide)
# chain: ARTKQTARKSTGGKAPRKQ
# modifications: A R T K Q T A Rme2a K S T G G K A P R K Q
# B30: H3 1-19 (peptide)
# chain: AR(Me2s)TK(Ac)QTAR(Me2s)K(Me)STGGKAPRKQ
# B31: H3 1-19 (peptide)
# chain: ARTKQTARKSTGGKAPRKQ
# modifications: A R T Kme1 Q T A Rme2s Kac S T G G K A P R K Q
# B32: H3 16-35 (peptide)
# chain: PRKQLATKAA[Arg(Me2a)]K[pS]APATGG
# B33: H3 16-35 (peptide)
# chain: PRKQLATKAAR[Lys(Me3)][pS]APATGG
# B34: H3 1-19 (peptide)
# chain: ARTKQTA[Arg(Me2a)]K[pS]TGGKAPRKQ
# B35: H3 1-19 (peptide)
# chain: A[Arg(Me2s)]T[Lys(Me3)]QTA[Arg(Me2s)][Lys(Me3)]STGGKAPRKQ
# B36: H4 1-19 (peptide)
# chain: SGRGKGGKGLGKGGAKRHR
# modifications: S G R G K G G Kac G L G K G G A K R H R
# B37: H3 1-19 (peptide)
# chain: ARTKQTARKSTGGKAPRKQ
# modifications: A Rme2a T Kme1 Q T A R Kme2 S T G G K A P R K Q
# B38: H3 1-19 (peptide)
# chain: A[Arg(Me2a)][pT][Lys(Me2)]QTARKSTGGKAPRKQ
# B39: H3 1-19 (peptide)
# chain: ARTKQTARKSTGGKAPRKQ
# modifications: A Rme2s T Kac Q T A Rme2s Kme3 S T G G K A P R K Q
# B40: H3 1-19 (peptide)
# chain: ARTKQTARKSTGGKAPRKQ
# modifications: A Rme2a T Kme3 Q T A Rme2a Kme1 S T G G K A P R K Q
# B41: H3 16-35 (peptide)
# chain: PRKQLATKAA[Arg(Me2a)][Lys(Me2)]SAPATGG
# B42: H3 1-19 (peptide)
# chain: A[Arg(Me2s)][pT]KQTARKSTGGKAPRKQ
# B43: H3 1-19 (peptide)
# chain: A[Arg(Me2s)]T[Lys(Me3)]QTAR[Lys(Me)]STGGKAPRKQ
# B44: H3 1-19 (peptide)
# chain: ARTKQTA[Arg(Me2a)][Lys(Me3)][pS]TGGKAPRKQ
# B45: H3 1-19 (peptide)
# chain: A[Arg(Me2a)]T[Lys(Me)]QTARK(Ac)STGGKAPRKQ
# B46: H3 1-19 (peptide)
# chain: ARTKQTAR(Me2a)K(Me)STGGKAPRKQ
# B47: H3 1-19 (peptide)
# chain: ARTKQTARKSTGGKAPRKQ
# modifications: A Rme2s T Kme1 Q T A Rme2a Kme3 S T G G K A P R K Q
# B48: H3 1-19 (peptide)
# chain: A[Arg(Me2a)]TKQTARKSTGGKAPRKQ
# B49: H4 1-19 (peptide)
# chain: SGRGKGGKGLGKGGAKRHR
# modifications: S G Rme2a G K G G Kac G L G K G G A K R H R
# B50: H3 1-19 (peptide)
# chain: ARTKQTARKSTGGKAPRKQ
# modifications: A Rme2a T Kme1 Q T A Rme2a Kme3 S T G G K A P R K Q
# B51: H3 1-19 (peptide)
# chain: A[Arg(Me2a)][pT]KQTARKSTGGKAPRKQ
# Biological target: T1, Bdf1 bromodomain 2 (GST-tagged, WT)
# Test: histone peptide array probed with recombinant GST-bromodomain, signal normalised to myc peptide control
row,Binder,binding score
1,B1,0.00364
2,B2,0.00915
3,B3,0
4,B4,0.0707
5,B5,0.275
6,B6,0
7,B7,0.00482
8,B8,0.944
9,B9,0.0385
10,B10,0.00915
11,B11,0.00167
12,B12,0.21
13,B13,0.00266
14,B14,0
15,B15,0
16,B16,0.00679
17,B17,0.00561
18,B18,0
19,B19,0.00423
20,B20,0.00364
21,B21,0.00895
22,B22,0.0867
23,B23,0.00305
24,B24,0.0206
25,B25,0.006

row,Binder,binding score
1,B26,0
2,B27,0.209
3,B28,0
4,B29,0
5,B30,0.00561
6,B31,0.0265
7,B32,0
8,B33,0
9,B34,0
10,B35,0
11,B36,0.0237
12,B37,0.0062
13,B38,0.00246
14,B39,0.00521
15,B40,0
16,B41,0
17,B42,0.00502
18,B43,0.00895
19,B44,0
20,B45,0.00207
21,B46,0
22,B47,0
23,B48,0.00462
24,B49,0.0345
25,B50,0.00285

# Biological target: T2, Bdf1 bromodomain 1 (GST-tagged, WT)
# Test: as above
row,Binder,binding score
1,B1,0.000897
2,B2,0.0052
3,B3,0.00197
4,B4,0
5,B5,0.123
6,B6,0.00592
7,B7,0.00287
8,B8,0.561
9,B9,0.0104
10,B10,0
11,B11,0
12,B12,0.206
13,B13,0
14,B51,0
15,B14,0.00897
16,B15,0
17,B16,0
18,B17,0.00628
19,B18,0.00897
20,B19,0.00323
21,B20,0.00879
22,B21,0.00161
23,B22,0.0387
24,B23,0.0247

row,Binder,binding score
1,B24,0.0231
2,B25,0
3,B27,0.108
4,B28,0
5,B29,0
6,B30,0.00161
7,B31,0.0247
8,B32,0
9,B33,0
10,B35,0.00789
11,B36,0.0203
12,B37,0.00538
13,B38,0
14,B39,0.00538
15,B40,0
16,B41,0.00789
17,B42,0
18,B43,0
19,B44,0
20,B45,0.00699
21,B47,0.00628
22,B48,0.0095
23,B49,0.0183
24,B50,0.00197
